The values that follow are results of earlier work, collected in PMC5113071.

Where two headings read alike, the source gives them in different places.

Series [1] has as its target NRP1 (Homo sapiens) (UniProt O14786).
The target in series [2] is alpha-2-macroglobulin fast form (Homo sapiens) (UniProt P01023).
The target of another series is VEGFR2 (Homo sapiens) (UniProt P35968).
For series [3], the target named is alpha-2-macroglobulin (Homo sapiens) (UniProt P01023).
A further series addresses VEGFR1 (Homo sapiens) (UniProt P17948).
Series [4] deals with NRP1 (Homo sapiens) (UniProt O14786). This is another data set of the same source.

UniProt P35968, sequence (P35968 20-1356): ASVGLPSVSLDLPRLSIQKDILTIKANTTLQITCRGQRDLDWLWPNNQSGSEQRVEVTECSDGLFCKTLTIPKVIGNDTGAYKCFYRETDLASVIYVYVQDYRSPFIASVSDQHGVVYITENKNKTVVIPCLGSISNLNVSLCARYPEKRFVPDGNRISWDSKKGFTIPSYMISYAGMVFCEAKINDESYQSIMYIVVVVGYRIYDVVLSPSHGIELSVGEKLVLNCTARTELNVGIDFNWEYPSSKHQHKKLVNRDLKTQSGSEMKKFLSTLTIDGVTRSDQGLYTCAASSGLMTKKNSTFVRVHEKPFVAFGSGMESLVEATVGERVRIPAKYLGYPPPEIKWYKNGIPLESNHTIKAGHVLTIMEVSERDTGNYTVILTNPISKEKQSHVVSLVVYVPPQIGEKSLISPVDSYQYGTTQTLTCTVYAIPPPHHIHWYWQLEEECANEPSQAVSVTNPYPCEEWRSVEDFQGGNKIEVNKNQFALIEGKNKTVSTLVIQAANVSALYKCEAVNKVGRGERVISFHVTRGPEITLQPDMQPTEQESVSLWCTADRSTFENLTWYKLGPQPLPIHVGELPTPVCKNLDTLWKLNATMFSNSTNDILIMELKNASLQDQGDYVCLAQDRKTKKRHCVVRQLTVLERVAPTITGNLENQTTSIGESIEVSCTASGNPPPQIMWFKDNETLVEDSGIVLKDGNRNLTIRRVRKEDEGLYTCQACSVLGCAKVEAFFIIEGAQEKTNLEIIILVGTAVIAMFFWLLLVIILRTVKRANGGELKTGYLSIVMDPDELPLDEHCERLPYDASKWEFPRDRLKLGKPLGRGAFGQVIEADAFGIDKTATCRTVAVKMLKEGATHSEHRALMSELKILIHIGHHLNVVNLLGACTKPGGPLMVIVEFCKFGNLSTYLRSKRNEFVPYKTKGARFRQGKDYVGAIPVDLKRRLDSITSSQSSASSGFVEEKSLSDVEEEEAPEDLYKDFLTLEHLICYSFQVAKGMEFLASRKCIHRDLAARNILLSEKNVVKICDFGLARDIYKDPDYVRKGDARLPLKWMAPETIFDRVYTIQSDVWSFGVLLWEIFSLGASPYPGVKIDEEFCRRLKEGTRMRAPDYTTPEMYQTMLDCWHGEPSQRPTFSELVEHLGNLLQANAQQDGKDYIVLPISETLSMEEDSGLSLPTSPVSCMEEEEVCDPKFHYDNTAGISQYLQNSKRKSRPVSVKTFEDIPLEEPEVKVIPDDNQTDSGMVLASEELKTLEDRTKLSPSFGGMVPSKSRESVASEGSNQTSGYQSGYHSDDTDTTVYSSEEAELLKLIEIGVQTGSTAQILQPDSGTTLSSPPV

Consider “VEGF165a and VEGF121 (from UniProt P15692)”, for which the Kd with NRP1 (Homo sapiens) [1] was 0.312 nM.
In the case of “VEGF165a, VEGF165b and VEGF121 (from UniProt P15692)”, the Kd is 420 nM in series [2], 0.1 nM with VEGFR2 (Homo sapiens), 4000 nM in series [3] and 0.033 nM with VEGFR1 (Homo sapiens).
Consider sVEGFR1 (from UniProt P17948), for which, in the series with NRP1 (Homo sapiens) [4], the dissociation constant Kd was 1.8 nM.

In general, Kd refers to the equilibrium constant for the complex coming apart.
